Laboratory results from the DeepSol protein solubility set.

assay: soluble on expression in E. coli; label from the status in PepcDB or PDB records

**Q.** With “MSLETTVITADRMIDVANGKVVKQAAVIVTDNIITASGRLKDLTVPNEATRIDLGNATLMPGLMDMHVHLTSDATRHGYKRLEVSLPRAAITGVKHAKATLDAGFTTVRNVGAPGFADVALRDAINAGDVVGPRMFVAGPSLGVTGGHCDSNLLPYEYDNYSEGVADGPWEVRKKVRRNIKYGATVIKFCATGGVLSKGTKVGAQQYTFEEMKALIDEAHLRGLTVATHAHGTNGIKAAIKASVDSVEHVSLLDDEAIDLAKKNGTYFSMDIYVTEYILGEGEKAGILEESLNKERIVGKTQRENFEKAVKAGVNMVFGSDAEGHHHHHH” as the sequence, how does the “soluble on expression in E. coli” value read?
**A.** soluble

**Q.** With “GPGSMTGLTVPRGEYTNVVVHHRMVGVSAFDDQFNCDWNFELYGVAERIKEHHGGAISDGFRMWLNRVEPGFIVRNFKQSLREAFGLTPPSALLMTSEEDIPHHEVTVYYDFEPAALRFPLLNIRLGE” as the sequence, how does the “soluble on expression in E. coli” value read?
**A.** soluble

**Q.** With “MGHHHHHHSHMEVVDPQQLGMFTEGELMSVGMDTFIHRIDSTEVIYQPRRKRAKLIGKYLMGDLLGEGSYGKVKEVLDSETLCRRAVKILKKKKLRRIPNGEANVKKEIQLLRRLRHKNVIQLVDVLYNEEKQKMYMVMEYCVCGMQEMLDSVPEKRFPVCQAHGYFCQLIDGLEYLHSQGIVHKDIKPG” as the sequence, how does the “soluble on expression in E. coli” value read?
**A.** not soluble

**Q.** Which “soluble on expression in E. coli” value does the source give for “LSDKLMERLKERAEGIFVSGPPGSGKSTFVAALAEFYRSQGKIVKTMESPRDLQVSKEITQYAPLEGDMEKTCDILLLVRPDYTIYDEVRKTRDFEIFADMRMAGVGMVGVVHASKPIDAIQRLIGRVELGVIPQVVDTVIFIKDGKIQKVYEIDFTVKVPYG” here?
**A.** not soluble

**Q.** With “MDNRSASLHSDIDTVLNNYDYDFAEVEIAVLGNGHINNTYKLTTPEVEFVLQQINHDVFPKTAELSSNAQKINLHLQRQKNIGNYPLSIPQQILSKTGETYSKVGTNYWRLMEFISNSYTLEEVESPEQAALVANAFAEFSCTLSDFPVEELAVIIEDFHDISFRMRQLNEAVENDLQDRLSSCQTLVNFCLDQQDFINHVIDISKKLPLHVTHNDTKINNLLFTEGDTPCAVIDLDTCMPGLLMHDFGDMVRTCCSNLAEDDTNIDAMIIKLDIFSALIQSYQNAFGTKMSALEKDSLIVGTKSVPFSLGTRFLTDYLNGDSYFQVSREKHNLDRAFNQIQLFILLCEAEPELIKLAMQALEHHHHHH” as the sequence, how does the “soluble on expression in E. coli” value read?
**A.** not soluble

**Q.** For “MNQEDNTGGGGIFGLFKWTKDALFGTDISPSMKYKDQEERRDRSRYAQDDTNFSMKFGNDSNRRSTNLSRSNSWSGLDSTLHRKYELLPEYNENGFNSIVNGDHHSKERIRSLRSPAPIVPREPLRNEPTDTFGHRLHTKRRTINELSNSQIPFIPPQEDDPLLSKLFNKDGVNEVRRSPYKLSVKDIPGKFPSPLTKRDEIDNYYVRDEDACHKNREYKKAYFDLFAQMDLNSRDLEDLCEDVREQREQFHRNEQTYKQAYEEMRAELVNELKKSKTLFENYYSLGQKYKSLKKVLDQTISHEAELATSRERLYQEEDLKNFEIQTLKQRLSDLELKYTNLQIEKDMQRDNYESEIHDLLLQLSLRNNERKDTSAGSNIFSTGQ”, which “soluble on expression in E. coli” value is on record?
**A.** soluble

**Q.** For “SMFKYEEIVLERGNSGLGFSIAGGIDNPHVPDDPGIFITKIIPGGAAAMDGRLGVNDCVLRVNEVDVSEVVHSRAVEALKEAGPVVRLVVRRRQPPPEETSV”, which “soluble on expression in E. coli” value is on record?
**A.** soluble

**Q.** With “MAELNFKAIEEKWQKRWLEAKIFEPNIRDKPKEKKFYITVAFPYLSGHLHVGHARTYTIPDVIARFKRMQGYNVLFPMAWHITGSPIVGIAERIKNRDPKTIWIYRDVYKVPEEILWTFEDPINIVKYFMKAAKETFIRAGFSVDWSREFYTTSLFPPFSKFIEWQFWKLKEKGYIVKGAHRVRWDPVVGTPLGDHDLMEGEDVPILDYIIIKFELRENGEVIYLPAATLRPETVYGVTNMWVNPNATYVKAKVRRKDKEETWIVSKEAAYKLSFQDREIEVIEEFKGEKLIGKYVRNPVSGDEVIILPAEFVDPDNATGVVMSVPAHAPFDHVALEDLKRETEILEKYDIDPRIVENITYISLIKLEGYGDFPAVEEVNKLGIKSQKDKEKLEQATKTIYKAEYHKGIFKVPPYEGKPVQEVKEAIAKEMLEKGIAEIMYEFAEKNVISRFGNRAVIKIIHDQWFIDYGNPEWKEKARKALERMKILPETRRAQFEAIIDWLDKKACARKIGLGTPLPWDPEWVIESLSDSTIYMAYYTISRHINKLRQEGKLDPEKLTPEFFDYIFLEEFSEDKEKELEKKTGIPAEIIHEMKEEFEYWYPLDWRCSGKDLIPNHLTFFIFNHVAIFREEHWPKGIAVNGFGTLEGQKMSKSKGNVLNFIDAIEENGADVVRLYIMSLAEHDSDFDWRRKEVGKLRKQIERFYELISQFAEYEVKGNVELKDIDRWMLHRLNKAIKETTNALEEFRTRTAVQWAFYSIMNDLRWYLRRTEGRDDEAKRYVLRTLADVWVRLMAPFTPHICEELWEKLGGEGFVSLAKWPEPVEEWWNETIEAEEEFIRSVMEDIKEIIEVAKIENAKRAYIYTAEDWKWKVAEVVSEKRDFKSSMEELMKDSEIRKHGKEVAKIVQKLIKERTFDVKRINEEKALREAKEFMEKELGIEIIINPTEDKGGKKKQAMPLKPAIFIE” as the sequence, how does the “soluble on expression in E. coli” value read?
**A.** soluble

**Q.** With “KTKLNITMEEDTEVLDEVVVVGYGAQKKESVVGAISQVSSKELLKSPAANISQAIAGKISGVITSQTSGAPGADDMKIYIRGRASFAGDNQPLILVDGVEREFSQIAPDDIESISTLKDASATAVYGVRGANGVMLITTKRGKEQK” as the sequence, how does the “soluble on expression in E. coli” value read?
**A.** not soluble

**Q.** With “MGSDKIHHHHHHMGTAKGNITNWTQYNQVLTQRGSLTFWMDDAAIKHWYNQHPSGRQGRSNTYSDSAISTALMIKGVFKLPLRALYGFINSLFRLMDVDLKSPDYSCISKRAKTVEVNYRLRSKGPARHILIDATGLKVFGEGEWKIRKHGKEKRRIWRKMHLAVDADTREIVSAVASLDNVHNSEVIPTLINPLRCKIKQVSADGAYDTKHCYAVLQRKGITAIIPSRKNAGYRRGEQPRNEAVDALKERSVSLVEA” as the sequence, how does the “soluble on expression in E. coli” value read?
**A.** not soluble

**Q.** With “MGSDKIHHHHHHMDYPQQHIKPYNEDGKKTEQVERMFDNIAHAYDKLNHTLSLGIDRSWRRKAIAWLRPFRPQHIMDVATGTGDFAILACRELNPDELIGTDISEGMMNVGREKVKKEGLSDKISFAREDCTSLSFADNRFDAITVAFGIRNFEDLDKGLSEMCRVLKPGGHLVILELTTPDRFPMKQLFAIYSKVVIPLLGKLLSKDNSAYHYLPDTIKVFPQGEVMKGVISKTGFGEVHFRRLTFGICTLYTATK” as the sequence, how does the “soluble on expression in E. coli” value read?
**A.** not soluble

**Q.** Which “soluble on expression in E. coli” value does the source give for “MGSDKIHHHHHHMAILNISELEQVEKFRQLQLTLRDRWKTIESFDNSEADILIIPSLSIDQRELQKIEGCEHYEERLLFSLIRLQNPRTRLIYVTSVPLHPSIIDYYLQLLPGIPFSHARNRLLLLSTYDSSLKPLSQKILERPRLLERIHQSLRLDKSFMICYNSSHWEGELSLKLGVPLYAAAPDLQIWGTKSGSRQIFKGSGVPHPDGSEKIWNHTDLAEATSDLWERQPTLKRVVVKLNEGISGEGNALLDLRPIENLAPGIGTHAQRVAAISDRFSTMRFQAKLETWDNFSGRIPELGAIAEAFVEGEIKRSPSVQGRITPTGEVEILSTHDQILGGPDGQIYLGCRFPADESYRLQLQQLGLQVGRTLAEKGTLERFGVDFIAVDKGNGEWDIQAIEINLRKGGTTHPFMTLKLLTNGRYDLSTGLFYSQQGRPKYYIATDNLQKERYQGLLPNDLMDIIAHHRLHFDSGTETGTVFHLMGCLSQFGKLGLTSIGDSPQQAQDIYNKVVKVLDEETRSENRDFSAFSDYSFPVAWDEYR” here?
**A.** not soluble

**Q.** For “GAMDISPTNHHEMLQNLQTVVNELYREDVDYVADKILTRQTVMQESIARFHEIIAIDKNHLRAVEQAIEQTMHSLNAQIDVLTANRAKVQQFSSTSHVDDEDVNSIAVAKTDGLNQLYNLVAQDYALTDTIECLSRMLHRGTIPLDTFVKQGRELARQQFLVRWHIQRITSPLS”, which “soluble on expression in E. coli” value is on record?
**A.** soluble

**Q.** For “MQQPEQYCRFLCLVAHEFFHLWNIKRIRPQAFEVFDYDSENYTTSLWFVEGVTSYFDQLIPLWAGLFDAPTYLKLLSDSLNRYFHTPGRFVQSLSAASFDAWIKLYRPDENSINSQMSYYLKGELVALEHHHHHH”, which “soluble on expression in E. coli” value is on record?
**A.** soluble
